In the data set the test system is variant Cas12i2 (RNP, exact variant not stated in Examples 1-5). Nature of the data set: cell_activity. To be noted: HEK293T RNP 10 uM, 3 days.

Bounds are passed on as bounds.

For the sequence “AGAAAUCCGUCUUUCAUUGACGGAGGUCCACUGGAGGAGAAGU / AGGTCCACTGGAGGAGAAGT / ACTTCTCCTCCAGTGGACCT [E4T6 Cas12i2 crRNA ; TTR E4T6 target]”, the activity (PAM 5'-TTN (CTTC)) was over 80 % indels.
As for “AGAAAUCCGUCUUUCAUUGACGGGUAUAUCCCUUCUACAAAUU / GTATATCCCTTCTACAAATT / AATTTGTAGAAGGGATATAC [E3T3 Cas12i2 crRNA ; TTR E3T3 target]”, the activity (PAM 5'-TTN (CTTT)) was over 80 % indels.
Sequence “AGAAAUCCGUCUUUCAUUGACGGUAGAUGCUGUCCGAGGCAGU / TAGATGCTGTCCGAGGCAGT / ACTGCCTCGGACAGCATCTA [E2T3 Cas12i2 crRNA ; TTR E2T3 target]” registered an activity (PAM 5'-TTN (GTTC)) of over 80 % indels.

For the origin of these results see patent US20220396782.
